Results on 27 substances are retold here after paper PMC12207370, “Macrocyclic Peptide Probes for Immunomodulatory Protein CD59: Potent Modulators of Bacterial Toxin Activity and Antibody‐Dependent Cytotoxicity” (Angewandte Chemie (International Ed. in English), 2025).

The assay concerns the target T1, biotinylated CD59 (Homo sapiens, UniProt P13987).
T1 construct: Recombinant soluble human CD59 with an additional C-terminal cysteine residue
T1 sequence (P13987 26-102 limits assumed): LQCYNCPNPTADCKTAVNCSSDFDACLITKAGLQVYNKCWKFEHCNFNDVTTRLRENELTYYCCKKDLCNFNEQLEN
As to the kind of experiment: mRNA-display cyclic peptide screen against CD59-biotin, NGS abundance after 6th selection round. The following applies: for Percentage Seq I: counts normalised by total counts of sample Seq I; for Percentage Seq I / Percentage Seq II: percentage of the pool; for Percentage Seq I / Percentage Seq II / Percentage Average / Percentage of the pool, averaged across the two sequencing samples / Percentage of the pool, Seq I / Percentage of the pool, Seq II: sheet R6; for Percentage Seq II: counts normalised by total counts of sample Seq II; for Percentage Average: percentage of the pool averaged across the two sequencing samples; for Counts Seq I / Counts Seq II: raw NGS counts of peptide sequence; for Counts Seq I: sequencing sample Seq I; for Counts Seq I / Counts Seq II / Counts (raw counts for peptide sequence), Seq I / Counts (raw counts for peptide sequence), Seq II: sheet R6 (6th selection round); for Counts Seq II: sequencing sample Seq II; for Counts (raw counts for peptide sequence), Seq I: NGS sample Seq I; for Counts (raw counts for peptide sequence), Seq II: NGS sample Seq II; for Percentage of the pool, averaged across the two sequencing samples: average of Seq I and Seq II; for Percentage of the pool, Seq I: counts normalised by total counts of NGS sample Seq I; for Percentage of the pool, Seq II: counts normalised by total counts of NGS sample Seq II. The method, boiled down: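 Peptide–mRNA fusions were made by in vitro translation with a customised PURE express kit. The kit lacked release factor 1 and methionine and was supplemented with […] initiator tRNA carrying N-chloroacetyl-d-tyrosine. Thioether macrocycles were formed, then enriched and amplified over iterative rounds on CD59-biotin immobilised on streptavidin beads. NGS read counts per sequence were recorded after the 6th selection round.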

In the case of CLDKWGRLWS, the “Percentage Seq I” value turned out to be 0.911%, the “Percentage Seq II” value is 0.754%, the “Percentage Average” value was determined as 0.833% and the “Counts Seq I” value came to 3987. For the same substance, the “Counts Seq II” value came to 325.

Turning to GRLNECHVIWP, the “Percentage Seq I” value amounted to 0.317%, the “Percentage Seq II” value is listed as 0.302%, the “Percentage Average” value stood at 0.310% and the “Counts Seq I” value came to 1389. Further, the “Counts Seq II” value worked out at 130.

Regarding RRDRFDQCVL, the “Counts (raw counts for peptide sequence), Seq I” value is given as 33; the “Counts (raw counts for peptide sequence), Seq II” value is recorded as 5; the “Percentage of the pool, averaged across the two sequencing samples” value was 0.010%; the “Percentage of the pool, Seq I” value turned out to be 0.00754%. Besides, the “Percentage of the pool, Seq II” value is recorded as 0.012%.

As to CFSARAIHGSL, the “Counts (raw counts for peptide sequence), Seq I” value was found to be 38; the “Counts (raw counts for peptide sequence), Seq II” value is reported as 6; the “Percentage of the pool, averaged across the two sequencing samples” value is 0.011%; the “Percentage of the pool, Seq I” value came to 0.009%. The “Percentage of the pool, Seq II” value is recorded as 0.014%.

In the case of CYGGRTFIYVWS, the “Percentage Seq I” value is on record as 0.038%, the “Percentage Seq II” value is 0.023%, the “Percentage Average” value was determined as 0.031% and the “Counts Seq I” value was found to be 168. Further, the “Counts Seq II” value worked out at 10.

Regarding CKIDVYGRTWS, the “Counts (raw counts for peptide sequence), Seq I” value was determined as 81; the “Counts (raw counts for peptide sequence), Seq II” value was determined as 5; the “Percentage of the pool, averaged across the two sequencing samples” value was found to be 0.015%; the “Percentage of the pool, Seq I” value came to 0.019%. Further, the “Percentage of the pool, Seq II” value is reported as 0.012%.

As to LWWSDFYLCVVVRQRQRQLGRGAE, the “Counts (raw counts for peptide sequence), Seq I” value was found to be 65; the “Counts (raw counts for peptide sequence), Seq II” value is 7; the “Percentage of the pool, averaged across the two sequencing samples” value is on record as 0.016%; the “Percentage of the pool, Seq I” value was 0.015%. The “Percentage of the pool, Seq II” value amounted to 0.016%.

Turning to CAWGNRYIAYY, the “Percentage Seq I” value is 0.078%, the “Percentage Seq II” value amounted to 0.067%, the “Percentage Average” value was determined as 0.073% and the “Counts Seq I” value stood at 342. Further, the “Counts Seq II” value was 29.

For CLDKWGRLWT, the “Percentage Seq I” value was found to be 0.042%, the “Percentage Seq II” value is listed as 0.042%, the “Percentage Average” value stood at 0.042% and the “Counts Seq I” value was determined as 182. For the same substance, the “Counts Seq II” value stood at 18.

Take CSRLTSRGWT: the “Counts (raw counts for peptide sequence), Seq I” value was determined as 62; the “Counts (raw counts for peptide sequence), Seq II” value is given as 5; the “Percentage of the pool, averaged across the two sequencing samples” value turned out to be 0.013%; the “Percentage of the pool, Seq I” value came out at 0.014%. Also, the “Percentage of the pool, Seq II” value was 0.012%.

Regarding CYGGRTFIYEWS, the “Percentage Seq I” value is listed as 0.037%, the “Percentage Seq II” value was found to be 0.042%, the “Percentage Average” value worked out at 0.040% and the “Counts Seq I” value stood at 164. In addition, the “Counts Seq II” value turned out to be 18.

Consider CYAAGSASWSRG, for which the “Counts (raw counts for peptide sequence), Seq I” value worked out at 65; the “Counts (raw counts for peptide sequence), Seq II” value is listed as 6; the “Percentage of the pool, averaged across the two sequencing samples” value was determined as 0.014%; the “Percentage of the pool, Seq I” value was found to be 0.015%. The “Percentage of the pool, Seq II” value was 0.014%.

Consider CCGGRTFIYAWS, for which the “Counts (raw counts for peptide sequence), Seq I” value was found to be 44; the “Counts (raw counts for peptide sequence), Seq II” value is listed as 4; the “Percentage of the pool, averaged across the two sequencing samples” value turned out to be 0.010%; the “Percentage of the pool, Seq I” value amounted to 0.010%. Moreover, the “Percentage of the pool, Seq II” value is given as 0.009%.

Regarding FVRGDLYSILG, the “Counts (raw counts for peptide sequence), Seq I” value is 50; the “Counts (raw counts for peptide sequence), Seq II” value is reported as 6; the “Percentage of the pool, averaged across the two sequencing samples” value worked out at 0.013%; the “Percentage of the pool, Seq I” value came to 0.011%. In addition, the “Percentage of the pool, Seq II” value turned out to be 0.014%.

In the case of CFKHRLGTDSA, the “Percentage Seq I” value was 0.097%, the “Percentage Seq II” value turned out to be 0.086%, the “Percentage Average” value turned out to be 0.091% and the “Counts Seq I” value was found to be 423. The “Counts Seq II” value amounted to 37.

YAQGDKLTARG: the “Percentage Seq I” value is given as 0.028%, the “Percentage Seq II” value stood at 0.026%, the “Percentage Average” value came out at 0.027% and the “Counts Seq I” value came out at 124. Further, the “Counts Seq II” value is 11.

In the case of GYLNECHALYTR, the “Counts (raw counts for peptide sequence), Seq I” value amounted to 63; the “Counts (raw counts for peptide sequence), Seq II” value is on record as 9; the “Percentage of the pool, averaged across the two sequencing samples” value is 0.018%; the “Percentage of the pool, Seq I” value is reported as 0.014%. In addition, the “Percentage of the pool, Seq II” value is on record as 0.021%.

On to LLGARDYVRLWH, for which the “Counts (raw counts for peptide sequence), Seq I” value is given as 41; the “Counts (raw counts for peptide sequence), Seq II” value is 7; the “Percentage of the pool, averaged across the two sequencing samples” value came out at 0.013%; the “Percentage of the pool, Seq I” value is given as 0.009%. In addition, the “Percentage of the pool, Seq II” value was 0.016%.

Take FIRGNSTSVLFLRQRQRQLGRGAE: the “Percentage Seq I” value is 0.060%, the “Percentage Seq II” value was determined as 0.072%, the “Percentage Average” value is given as 0.066% and the “Counts Seq I” value is reported as 264. Further, the “Counts Seq II” value turned out to be 31.

Consider CFTGRLTIDAV, for which the “Counts (raw counts for peptide sequence), Seq I” value came out at 26; the “Counts (raw counts for peptide sequence), Seq II” value is 6; the “Percentage of the pool, averaged across the two sequencing samples” value amounted to 0.010%; the “Percentage of the pool, Seq I” value worked out at 0.006%. Further, the “Percentage of the pool, Seq II” value is 0.014%.

Take FVRGNSTSVLF: the “Percentage Seq I” value is recorded as 0.020%, the “Percentage Seq II” value was found to be 0.019%, the “Percentage Average” value was 0.019% and the “Counts Seq I” value is listed as 88. Further, the “Counts Seq II” value came to 8.

On to CYGGRTFVYAWS, for which the “Percentage Seq I” value stood at 0.103%, the “Percentage Seq II” value is on record as 0.104%, the “Percentage Average” value is recorded as 0.104% and the “Counts Seq I” value worked out at 450. Besides, the “Counts Seq II” value is on record as 45.

On to CFQNRVTSDSAK, for which the “Percentage Seq I” value worked out at 0.160%, the “Percentage Seq II” value worked out at 0.142%, the “Percentage Average” value amounted to 0.151% and the “Counts Seq I” value is reported as 702. Also, the “Counts Seq II” value was 61.

Turning to SAWGNRQIQY+, the “Percentage Seq I” value is on record as 0.026%, the “Percentage Seq II” value is on record as 0.016%, the “Percentage Average” value is listed as 0.021% and the “Counts Seq I” value stood at 114. Also, the “Counts Seq II” value is recorded as 7.

For VARGNSNTVWG, the “Percentage Seq I” value worked out at 0.019%, the “Percentage Seq II” value was determined as 0.021%, the “Percentage Average” value was found to be 0.020% and the “Counts Seq I” value worked out at 85. Moreover, the “Counts Seq II” value amounted to 9.

For WATGSATFSSG, the “Percentage Seq I” value came out at 0.730%, the “Percentage Seq II” value came to 0.673%, the “Percentage Average” value came out at 0.702% and the “Counts Seq I” value turned out to be 3196. Further, the “Counts Seq II” value was 290.

As for YCWVRGSRNYT, the “Percentage Seq I” value was 0.064%, the “Percentage Seq II” value is recorded as 0.060%, the “Percentage Average” value is listed as 0.062% and the “Counts Seq I” value was determined as 279. Moreover, the “Counts Seq II” value was found to be 26.
